Results: US20240376225A1 (CHILDREN S MEDICAL CENTER, published 2024)

What was measured:
[1] = molecular target: cyno CD21 protein (cynomolgus monkey); assay: SPR (Biacore)
[2] = molecular target: T1, human CD21 on Raji B cells or primary B cells (human, UniProt P20023 21-1033); assay: flow cytometry, competition with biotinylated human C3d on Raji B cells
T1 construct: whole, on cells; also called cell-surface human CD21; Raji cells
T1 sequence (looked up): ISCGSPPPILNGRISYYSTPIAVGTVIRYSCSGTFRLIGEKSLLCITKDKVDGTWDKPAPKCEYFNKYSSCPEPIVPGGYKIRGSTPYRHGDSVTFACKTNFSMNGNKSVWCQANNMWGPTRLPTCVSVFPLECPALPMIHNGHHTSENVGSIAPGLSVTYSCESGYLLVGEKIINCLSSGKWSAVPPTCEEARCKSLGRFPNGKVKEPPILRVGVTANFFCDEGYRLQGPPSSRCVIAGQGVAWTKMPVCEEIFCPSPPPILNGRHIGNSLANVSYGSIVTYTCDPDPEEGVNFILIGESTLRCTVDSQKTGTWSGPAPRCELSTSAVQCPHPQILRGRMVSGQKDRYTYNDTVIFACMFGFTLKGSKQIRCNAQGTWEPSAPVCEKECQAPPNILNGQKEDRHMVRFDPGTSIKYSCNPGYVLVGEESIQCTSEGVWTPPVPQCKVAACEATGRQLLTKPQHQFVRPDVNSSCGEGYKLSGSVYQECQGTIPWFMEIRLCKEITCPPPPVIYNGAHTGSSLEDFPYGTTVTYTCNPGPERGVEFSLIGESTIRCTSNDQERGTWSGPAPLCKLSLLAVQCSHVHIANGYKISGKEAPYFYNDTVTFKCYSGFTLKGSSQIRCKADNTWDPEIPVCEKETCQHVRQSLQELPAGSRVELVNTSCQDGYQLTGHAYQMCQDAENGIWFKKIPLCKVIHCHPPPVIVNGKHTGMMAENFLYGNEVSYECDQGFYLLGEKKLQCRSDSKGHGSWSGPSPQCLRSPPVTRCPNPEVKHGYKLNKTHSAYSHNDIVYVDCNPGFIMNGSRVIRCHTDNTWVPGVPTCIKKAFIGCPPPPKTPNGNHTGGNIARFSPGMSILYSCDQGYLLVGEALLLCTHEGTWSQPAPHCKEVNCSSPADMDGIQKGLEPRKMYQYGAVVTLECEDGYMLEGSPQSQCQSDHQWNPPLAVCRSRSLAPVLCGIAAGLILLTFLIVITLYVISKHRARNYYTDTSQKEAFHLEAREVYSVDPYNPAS
Procedure: (§1) To measure neutralization of C3d binding to cell-surface CD21 by flow cytometry, human Raji cells and CHO-cyno CD21 cells were used. Cells were dissociated with cell dissociation buffer (Sigma) and blocked on ice with PBS+3% bovine serum albumin (BSA)+human Fc blocker. In a 96-well plate, […] were incubated for 0.5 hr on ice with 3-fold serially diluted Ab15 (starting from 100 nM), then with 4.5 ug/ml biotinylated human C3d. SA-BV451 conjugate (BD Bioscience, cat. #563529) was then added at 0.5 ug/ml for 1 hr on ice. Cells were washed again with cold PBS, resuspended in PBS and analyzed for human C3d binding on a BD Fortessa™.

cyno CD21 on CHO cells [3] = molecular target: T2, cyno CD21 on CHO cells (cynomolgus monkey, UniProt A0A2K5URG6 21-1034); assay: flow cytometry, competition with biotinylated human C3d on CHO-cynoCD21 cells
T2 construct: whole, on cells; also called CHO-cyno CD21 cells; CHO-cynoCD21
T2 sequence: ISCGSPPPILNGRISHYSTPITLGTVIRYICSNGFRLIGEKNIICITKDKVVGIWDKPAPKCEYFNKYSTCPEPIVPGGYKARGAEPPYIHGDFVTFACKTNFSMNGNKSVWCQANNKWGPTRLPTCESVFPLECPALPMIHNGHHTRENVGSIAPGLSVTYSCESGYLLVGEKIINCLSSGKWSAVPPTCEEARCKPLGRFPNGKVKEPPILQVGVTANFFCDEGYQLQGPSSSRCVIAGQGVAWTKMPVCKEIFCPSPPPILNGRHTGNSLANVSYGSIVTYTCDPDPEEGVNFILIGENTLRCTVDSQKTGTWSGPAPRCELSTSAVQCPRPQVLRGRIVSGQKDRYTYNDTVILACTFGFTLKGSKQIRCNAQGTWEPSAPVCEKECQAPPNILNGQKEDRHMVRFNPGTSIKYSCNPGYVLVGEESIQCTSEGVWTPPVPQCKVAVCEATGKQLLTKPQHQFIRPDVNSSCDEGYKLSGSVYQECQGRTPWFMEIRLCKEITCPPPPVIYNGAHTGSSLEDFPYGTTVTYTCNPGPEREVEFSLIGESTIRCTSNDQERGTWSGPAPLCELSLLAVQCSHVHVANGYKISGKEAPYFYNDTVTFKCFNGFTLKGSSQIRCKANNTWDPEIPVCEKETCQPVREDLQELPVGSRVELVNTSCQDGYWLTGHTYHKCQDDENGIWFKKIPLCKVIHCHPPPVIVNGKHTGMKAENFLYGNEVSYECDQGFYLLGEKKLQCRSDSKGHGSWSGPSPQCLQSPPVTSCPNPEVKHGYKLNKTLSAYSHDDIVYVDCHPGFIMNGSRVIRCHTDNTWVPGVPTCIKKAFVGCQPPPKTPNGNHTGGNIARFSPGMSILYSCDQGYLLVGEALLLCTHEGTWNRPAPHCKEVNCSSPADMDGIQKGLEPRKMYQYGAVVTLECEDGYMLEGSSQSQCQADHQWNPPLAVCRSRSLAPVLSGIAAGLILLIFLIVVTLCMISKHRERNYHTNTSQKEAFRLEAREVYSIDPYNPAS
Procedure: as §1

cyno CD21 on CHO cells [4] = molecular target: T2, cyno CD21 on CHO cells; assay: flow cytometry, Ab15 titrated on CHO cells overexpressing cyno CD21, anti-human IgG-PE, Geo MFI
Procedure: Ab15 binding to cell-surface human and cyno CD21 was determined using human Raji B cells (ATCC, Manassas, VA) and CHO cells over expressing cyno CD21. Cells expressing cyno CD21 were generated by transfecting CHO cells with a mammalian expression construct encoding full-length cyno CD21. Stable cell clones were selected on hygromycin-B, and their expression of cyno CD21 confirmed by flow cytometry.
For the Ab15 binding experiment, cells were dissociated with cell dissociation buffer (Sigma) and blocked on ice with PBS+3% bovine serum (BS)+human Fc blocker. Cells were stained on ice for 1 hr with 3-fold serially diluted Ab15 (starting from 50 nM), then washed with cold PBS. Secondary antibody (anti-human IgG-PE, 1:500 dilution, Invitrogen, cat. #H10104) was added on ice for 1 hr. Cells were washed with and resuspended in PBS, and analyzed for Ab15 binding on a BD Fortessa instrument.

B1: Ab15 (antibody, human IgG1, kappa, V domains shown)
VH: QVQLVQSGAEVKKPGSSVKVSCKASGGTFSSYAISWVRQAPGQGLEWMGRIIPILGIANYAQKFQGRVTITADKSTSTAYMELSSLRSEDTAVYYCAREDDSSGYYQDWGQGTLVTVSS
VL: EIVMTQSPATLSLSPGESATLSCRAGQSINSHLAWYQQKPGQSPSLLIYDASTRATGVPARFSGSGFGTEFTLTISSLQSEDFAVYFCQQYEYWYTFGQGTKLEIKR
notes: Tb-labeled in the HTRF assay; also called 36C01; SC38-36C01 (IgG1 version)
With B1 the Kd [1] was 5.77 nM, the IC50 [2] was 1.17 nM and the IC50 (cyno CD21 on CHO cells [3]) was 0.24 nM. The EC50 (cyno CD21 on CHO cells [4]) was 0.05 nM.
